Test results taken from patent US20100303790A1, “USE OF BILIVERDIN REDUCTASE (BVR) AND BVR PEPTIDE FRAGMENTS TO TREAT CORONARY DISORDERS” (UNIVERSITY OF ROCHESTER, priority 2009, published 2010).
“Also recorded” adds a separate entry of the source. Where a SMILES comes first, the peptide text is derived from it. The star is where a group is joined. Cbz = O=C(OCc1ccccc1)*

T1: hBVR-derived peptide KKRILHC^281
T1 chain: KKRILHC

T2: hBVR-derived peptide KYCCSRK^296
T2 chain: KYCCSRK

B1: si-rBVR: retrovirus-expressed siRNA against rat BVR (SEQ ID NO:61, 62) (nucleic acid)
chain 1: GATCCCCTCTGCAGCATTCCTGAACCTGTTCAAGAGACAGGTTCAGGAATGCTGCAGATTTTTGGAAA
chain 2: AGCTTTTCCAAAAATCTGCAGCATTCCTGAACCTGTCTCTTGAACAGGTTCAGGAATGCTGCAGAGGG
modifications: the letters are possibly those of the target site
B2: si-rHO-2: retrovirus-expressed siRNA against rat HO-2 (SEQ ID NO:63, 64) (nucleic acid)
chain 1: GATCCCCGAAAACCATACCAAAATGGCATTCAAGAGATGCCATTTTGGTATGGTTTTCTTTTTGGAAA
chain 2: AGCTTTTCCAAAAAGAAAACCATACCAAAATGGCATCTCTTGAATGCCATTTTGGTATGGTTTTCGGG
modifications: the letters are possibly those of the target site
B3: rat biliverdin reductase (BVR), endogenous in perfused rat heart (protein)
chain: AEPKRKFGVVVVGVGRAGSVRLRDLKDPRSAAFLNLIGFVSRRELGSLDEVRQISLEDALRSQEIDVAYICSESSSHEDYIRQFLQAGKHVLVEYPMTLSFAAAQELWELAAQKGRVLHEEHVELLMEEFEFLRREVLGKELLKGSLRFTASPLEEERFGFPAFSGISRLTWLVSLFGELSLISATLEERKEDQYMKMTVQLETQNKGLLSWIEEKGPGLKRNRYVNFQFTSGSLEEVPSVGVNKNIFLKDQDIFVQKLLDQVSAEDLAAEKKRIMHCLGLASDIQKLCHQKK

Experiments:
[1] = test system: rat neonatal cardiomyocytes; assay: BVR, HO-2 and HO-1 protein levels in rat neonatal cardiomyocytes (western blot); assay type: cell-based; conditions: for HO-2 protein level: MG132 50 μg/ml; for effect on isoproterenol-induced BVR protein expression / effect on isoproterenol-induced HO-2 protein expression: 10 μM isoproterenol, western blot
Procedure: Neonatal Rat Cardiomyocytes: Primary cultures of neonatal rat cardiomyocytes were prepared as described previously (Ding et al., “Functional Role of Phosphodiesterase 3 in Cardiomyocyte Apoptosis: Implication in Heart Failure,” Circulation 111:2469-2476 (2005) which is hereby incorporated by reference in its entirety). Briefly, fragmented ventricular tissue from 1-2 day old Sprague-Dawley rats was subjected to multiple rounds of enzymatic digestion with collagenase II (Worthington, Lakewood, N.J.). The cells were then collected by low speed centrifugation at 4° C. Non-myocytes were removed by two rounds of pre-plating the cells on culture dishes. The enriched cardiomyocytes were cultured in DMEM with 10% FBS and 10% horse serum. The day after cell adhesion, 10 μM cytosine 1-β-D-arabinofuranoside (Sigma, St. Louis, Mo.) was added to inhibit the growth of contaminating non-myocytes.
Plasmids and Constructs: Adenovirus for expression of an endogenous PKA inhibitor (PKA251 bp) was prepared as described previously (Ding et al., “Functional Role of Phosphodiesterase 3 in Cardiomyocyte Apoptosis: Implication in Heart Failure,” Circulation 111:2469-2476 (2005), which is hereby incorporated by reference in its entirety). Rat BVR and HO-2 siRNA were designed based on the human sequences (Miralem et al., “Small Interference RNA-Mediated Gene Silencing of Human Biliverdin Reductase, but not that of Heme Oxygenase-1, Attenuates Arsenite-Mediated Induction of the Oxygenase and Increases Apoptosis in 293A Kidney Cells,” J Biol Chem 280:17084-17092 (2005), which is hereby incorporated by reference in its entirety). The BVR targeting site is at nucleotides 94-114, and the HO-2 targeting site is at nucleotides 73-93, downstream of the start codon in each case. Oligonucleotides containing the sequence of a 21 nucleotide small interference RNA were synthesized as follows: BVR siRNA, 5′-GATCCCC ([…]) TTCAAGAG ([…]) TTTTTGGAAA (SEQ ID NO:61) and 5′-AGCTTTTCCAAAAA ([…]) TCTCTTGAA ([…]) GGG (SEQ ID NO:62; HO-2 siRNA, 5′-GATCCCC ([…]) TTCAAGAGA ([…]) TTTTTGGAAA (SEQ ID NO:63) and 3′-AGCTTTTCCAAAAA ([…]) TCTCTTGAA ([…]) GGG (SEQ ID NO:64). Complementary oligonucleotides were annealed, then ligated into pSuper-Retro vector (OligoEngine Co. Seattle, Wash.). E. coli clones containing the desired constructs were identified by restriction analysis and verified by DNA sequencing. The retroviral DNA vectors for generating BVR si-rRNA and […] were transfected into the HEK293A packaging cell line, and the supernatant containing the expressed si-rBVR or si-rHO-2 retrovirus was then titrated in NIH3T3 cells. Retrovirus expressing siRNA was used to infect cells at a multiplicity of infection of 4 plaque-forming units/cell. The plasmid pcDNA-hBVR has previously been described (Lerner-Marmarosh et al., “Human Biliverdin Reductase: A Member of the Insulin Receptor Substrate Family with Serine/Threonine/Tyrosine Kinase Activity,” Proc Natl Acad Sci US A 102:7109-7114 (2005), which is hereby incorporated by reference in its entirety); pcDNA-hHO2 was constructed by cloning the HO-2 open reading frame into pcDNA3. […]

[2] = test system: rat neonatal cardiomyocytes; assay: Apoptosis of cardiomyocytes (cleaved caspase-3, TUNEL, DNA electrophoresis); assay type: cell-based; conditions: for DNA fragmentation by electrophoresis of genomic DNA: ISO treatment coupled with siRNA; for number of cardiac apoptotic cells (TUNEL): siRNA followed by isoproterenol, relative to absence of ISO stimulation; for level of cleaved caspase-3 protein: with 10 μM isoproterenol, 24 hours
Procedure: Western Blot Analysis: Cell lysates were prepared by homogenization in RIPA buffer (40 mM Tris-HCl, pH 7.5, 1 mM EDTA, 1 mM DTT, 0.1 mM Na3VO4, 10 μg/ml aprotinin, 5 μg/ml pepstatin, 20 μg/ml leupeptin, 1 mM bezamidine followed by centrifugation at 800×g for 10 minutes at 4° C. (Ding et al., “Functional Role of Phosphodiesterase 3 in Cardiomyocyte Apoptosis: Implication in Heart Failure,” Circulation 111:2469-2476 (2005), which is hereby incorporated by reference in its entirety). Supernatant proteins were resolved by SDS-PAGE and transferred to nitrocellulose. Western blots were examined using antibodies against β-actin (Cell Signaling), BVR (Huang et al., “Detection of 10 Variants of Biliverdin Reductase in Rat Liver by Two-Dimensional Gel Electrophoresis,” J Biol Chem 264:7844-7849 (1989), which is hereby incorporated by reference in its entirety), HO-1, HO-2 (Panahian et al., “Site of Injury-Directed Induction of Heme Oxygenase-1 and -2 in Experimental Spinal Cord Injury Differential Functions in Neuronal Defense Mechanisms?” J Neurochem 76:539-554 (2001), which is hereby incorporated by reference in its entirety), and cleaved caspase-3 (Cell Signaling, Beverly Mass.). The secondary antibody was horseradish peroxidase-conjugated goat anti-rabbit IgG (1:2,000, Bio-Rad).
Analysis of Apoptosis: The terminal deoxyribonucleotide transferase-mediated dUTP nick-end labeling (TUNEL) assay was used to detect in situ DNA fragmentation, using the In Situ Cell Death Detection Kit (Roche) as described previously (Ding et al., “Functional Role of Phosphodiesterase 3 in Cardiomyocyte Apoptosis: Implication in Heart Failure,” Circulation 111:2469-2476 (2005), which are hereby incorporated by reference in their entirety). In addition, the cells were stained for cardiomyocyte-specific sarcomeric α-actinin with the antibody EF-53 to distinguish cardiomyocytes from contaminating fibroblasts; and only EF-53 positive cells were counted. Three independent experiments were performed and an average of 1,000 EF-53 positive cells from random fields were analyzed.
DNA Electrophoresis: Total cellular DNA was isolated from untreated and treated cells by lysis in 10 mM Tris-HCl, pH 7.8; 1 mM, EDTA, 10 mM NaCl, 1% (w/v) SDS and 1 mg/ml proteinase K at 60° C. for 2 hours. The lysate was extracted twice each with phenol-choloroform (1:1, v/v) and chloroform, followed by precipitation with ethanol. The precipitate was collected by centrifugation, washed once in 70% ethanol, and resuspended in TE containing 1 mg/ml RNase at 37° C. for 30 min. DNA was resolved by electrophoresis in 2.0% agarose gels containing ethidium bromide.
It was noted that the level of cleaved caspase-3 protein, a marker for apoptosis, was increased by the inhibition of isoproterenol-induced expression of either BVR or HO-2 using siBVR or si-rHO-2, respectively (FIG. 6A). […] That apoptosis was occurring in cardiomyocytes, per se, was determined by triple staining of the cells with anti-α-actinin antibody to detect cardiomyocytes, TUNEL staining for cells undergoing apoptosis, and DAPI to detect nuclei (FIG. 6C). The merged images in FIG. 6C clearly indicate that the cardiomyocytes are undergoing apoptosis.

[3] = biological target: T1, hBVR-derived peptide KKRILHC^281
[4] = biological target: T2, hBVR-derived peptide KYCCSRK^296

| Molecule | HO-2 protein level ([1]; BVR gene expression inhibited by si-BVR) | HO-2 protein level ([1]; absence of isoproterenol stimulation) | effect on isoproterenol-induced BVR protein expression [1] | effect on isoproterenol-induced HO-2 protein expression [1] | DNA fragmentation by electrophoresis of genomic DNA [2] | number of cardiac apoptotic cells (TUNEL) [2] | level of cleaved caspase-3 protein [2] | BVR activity (rate of conversion of biliverdin to bilirubin at pH 6.7, NADH cofactor) in perfused rat heart [3] | BVR activity (rate of conversion of biliverdin to bilirubin at pH 6.7, NADH cofactor) in perfused rat heart [4] |
| --- | --- | --- | --- | --- | --- | --- | --- | --- | --- |
| CC(C)C[C@@H](C=O)NC(=O)[C@H](CC(C)C)NC(=O)[C@H](CC(C)C)NC(=O)OCc1ccccc1 [MG132] (Cbz-Leu-Leu-Leu-aldehyde) | increased the HO-2 protein levels | increased | – | – | – | – | – | – | – |
| B1 | – | – | efficiently blocked | effectively blocked; also recorded: also blocked | DNA fragmentation could be detected | increase | increased | – | – |
| B2 | – | – | no effect | ablated | DNA fragmentation could be detected | increase | increased | – | – |
| B3 | – | – | – | – | – | – | – | peptide KKRILHC^281 blocked the activity of BVR, whether ISO was present or not | Treatment of the heart with peptide KYCCSRK^296 alone increased BVR activity |
